Experimental data from US20230257453A1 (PROVIVA THERAPEUTICS HONG KONG, published 2023).
Substitutions are numbered along the chain they refer to. In names and notes the source's numbering stands.

T1: denatured human collagen type III (human, UniProt P02461 154-1221, limits assumed)
T1 construct: Bought human collagen III (ab7535, Abcam), denatured at 99 C for 15 minutes and then kept on ice for 5 minutes; also called denatured human collagen III
T1 sequence: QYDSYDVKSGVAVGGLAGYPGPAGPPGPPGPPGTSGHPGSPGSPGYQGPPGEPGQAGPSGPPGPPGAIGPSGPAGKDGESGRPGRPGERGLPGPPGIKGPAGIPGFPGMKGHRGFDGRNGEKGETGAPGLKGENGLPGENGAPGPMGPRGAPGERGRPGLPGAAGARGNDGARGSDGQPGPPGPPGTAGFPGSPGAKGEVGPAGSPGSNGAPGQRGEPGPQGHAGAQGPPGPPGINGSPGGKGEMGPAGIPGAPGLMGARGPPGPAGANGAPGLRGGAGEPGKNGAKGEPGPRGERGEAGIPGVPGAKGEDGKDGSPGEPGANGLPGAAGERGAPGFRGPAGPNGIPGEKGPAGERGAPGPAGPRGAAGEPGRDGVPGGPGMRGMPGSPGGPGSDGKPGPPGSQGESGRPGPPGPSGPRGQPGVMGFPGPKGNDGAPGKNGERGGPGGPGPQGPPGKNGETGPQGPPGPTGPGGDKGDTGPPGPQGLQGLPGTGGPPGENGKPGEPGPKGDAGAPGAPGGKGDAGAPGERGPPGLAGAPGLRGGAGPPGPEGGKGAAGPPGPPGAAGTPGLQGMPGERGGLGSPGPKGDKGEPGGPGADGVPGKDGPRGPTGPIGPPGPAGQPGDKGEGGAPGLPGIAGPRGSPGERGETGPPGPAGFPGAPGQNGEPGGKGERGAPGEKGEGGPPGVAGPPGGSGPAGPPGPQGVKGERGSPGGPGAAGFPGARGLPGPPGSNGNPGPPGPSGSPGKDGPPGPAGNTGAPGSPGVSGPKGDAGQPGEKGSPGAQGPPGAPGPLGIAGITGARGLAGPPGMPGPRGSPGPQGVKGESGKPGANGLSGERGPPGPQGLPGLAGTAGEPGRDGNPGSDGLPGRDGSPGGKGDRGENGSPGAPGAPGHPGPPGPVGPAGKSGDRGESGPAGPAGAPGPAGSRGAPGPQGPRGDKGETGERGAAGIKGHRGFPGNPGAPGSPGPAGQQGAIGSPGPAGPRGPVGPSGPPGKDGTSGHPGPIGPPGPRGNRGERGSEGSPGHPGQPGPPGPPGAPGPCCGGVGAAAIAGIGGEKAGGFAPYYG

B1: P27152798 (antibody, human IgG1, kappa, L234A L235A, V domains shown)
VH: QVTLKESGPALVKPTQTLTLTCTFSGFSLSTPGMGVWWIRQPPGKALEWLADIWWDDNKYTNPSLKSRLTISKDTSKNQVVLTMTNMDPVDTATYYCARRANYGNPYYAQDYWGQGTTVTVSS
VL: DIVMTQTPLSLPVTPGEPASISCRSSQSIVHSNANTYLEWYLQKPGQSPQLLIYKVSNRFSGVPDRFSGSGSGTDFTLKISRVEAEDVGVYYCFQGSHVPWTFGQGTKVEIKR
notes: also called VH chain D3 / VL chain B7A
B2: P27122713 (antibody, human IgG1, kappa, L234A L235A, V domains shown)
VH: B1 VH with P32S, W37G, T61A
VL: B1 VL with A34G
notes: produced by transient transfection in Expi293 cells and purified on MabSelect SuRe; also called VH chain B7 / VL chain B7
B3: P27152716 (antibody, human IgG1, kappa, L234A L235A, V domains shown)
VH: B1 VH
VL: B1 VL with H31S, N33W, A34G
notes: produced by transient transfection in Expi293 cells and purified on MabSelect SuRe; also called VH chain D3 / VL chain D3

These binders were tested against T1, denatured human collagen type III (assay: ELISA, denatured collagen coated on plate, anti-human IgG peroxidase detection).
Experimental: ELISA analysis. The binding activity and specificity of purified antibodies were determined by ELISA. Human collagens I (ab7533, Abcam), III (ab7535, Abcam), IV (ab7536, Abcam), an V (ab7537, Abcam), and mouse collagens I (NBP2-62423, NOVUS) and IV (3410-010-02, R&D) were used in ELISA analysis. “Denatured” collagen samples were prepared by incubation of collagens samples at 99° C. for 15 minutes followed by incubation on ice for 5 minutes Microtiter plates were coated with native or denatured collagen protein overnight at 4° C. The next day, plates were washed with PBS and blocked with 3% non-fat dry milk in PBS or 1% BSA. Serially diluted antibodies were added for binding to the coated antigen. Bound antibodies were detected with peroxidase-conjugated anti-human IgG secondary antibody (Jackson ImmunoResearch).

binding result	Binder
binds	B1
binds	B2
binds	B3
